Patent publication US20060063228A1 (Pfizer, published 2006)

What was measured:
recombinant human IL-13 [1] = molecular target: T1, recombinant human IL-13 (human, UniProt P35225 34-146); test: Biacore; mAb13.2 immobilized on the chip, dose range of human IL-13 passed over
T1 construct: also called biotinylated IL-13; rec human IL-13
Method: (§1) Several measures were taken to confirm that the murine monoclonal antibody isolated in Example 1.1, i.e., mAb13.2, binds with high affinity and specificity to human IL-13. First, BIACORE™ analyses of three monoclonal antibodies to human IL-13 (mAb13.2, mAb13.4, and mAb13.9) were performed using a 69 RU streptavidin chip to which biotinylated IL-13 had been immobilized. […] Upon buffer exchange, dissociation was slow (FIG. 1). Second, BIACORE™ analysis of mAb13.2 was performed using a Biacore chip to which mAb13.2 had been immobilized. Different concentrations of IL-13 were passed over the chip. Again, rapid binding and slow dissociation was shown (FIG. 2). Third, analysis by ELISA determined that mAb13.2 bound to all forms of human IL-13 tested, including native IL-13 derived from cord blood T cells (FIG. 3). Plates were coated with anti-FLAG™ M2 antibody. The binding of FLAG™-human IL-13 was detected with biotinylated mAb13.2 and streptavidin-peroxidase. […] There was no detectable binding of mAb13.2 to recombinant murine IL-13 (FIG. 3). To confirm the results found by ELISA, the monoclonal antibody, mAb13.2, was coated onto a Biacore chip, and solutions containing recombinant human IL-13 or a polymorphic form of IL-13 (ARG variant), which is expressed at high frequency in patients suffering from asthma (Heinzmann et al. (2000) Hum. Mol. Genet. 9:594), were passed over the chip.

FLAG-human IL-13 [2] = molecular target: T2, FLAG-human IL-13 (human, UniProt P35225 34-146); test: competition ELISA; human IL-13-FLAG immobilized with anti-FLAG antibody, detected with biotinylated mAb13.2; unlabeled antibody varied
T2 construct: Captured on ELISA plates by anti-FLAG M2 antibody; order of tag and IL-13 is not certain; also called IL-13-FLAG; human IL-13-FLAG; not shown: FLAG tag
T2 sequence (P35225 other isoform, or with tags, fused parts or gaps limits assumed): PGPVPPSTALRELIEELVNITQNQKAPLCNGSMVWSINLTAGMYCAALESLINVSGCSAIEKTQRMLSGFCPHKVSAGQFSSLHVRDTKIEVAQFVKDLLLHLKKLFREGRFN
Method: The chimeric antibody, ch13.2, was tested for IL-13 binding. […] Chimeric antibody, ch13.2, was able to competitively bind to IL-13 similarly to mAb13.2 (FIG. 14A). In another test, human peripheral blood monocytes were treated overnight with IL-13 to induce CD23 expression in the presence of various concentrations of mouse mAb13.2 or ch13.2.

recombinant human IL-13 [3] = molecular target: T1, recombinant human IL-13; test: cell-based or functional assay
recombinant human IL-13 [4] = molecular target: T1, recombinant human IL-13; test: Biacore; biotinylated IL-13 immobilized on a 69 RU streptavidin (SA) chip, antibody passed over the chip
Method: as §1

recombinant murine IL-13 = molecular target: T3, recombinant murine IL-13 (murine, UniProt P20109 19-131, limits assumed); test: competition ELISA; FLAG-human IL-13 captured on anti-FLAG M2 plates and detected with biotinylated mAb13.2 and streptavidin-peroxidase; soluble IL-13 added as competitor of FLAG-human IL-13
T3 sequence (looked up): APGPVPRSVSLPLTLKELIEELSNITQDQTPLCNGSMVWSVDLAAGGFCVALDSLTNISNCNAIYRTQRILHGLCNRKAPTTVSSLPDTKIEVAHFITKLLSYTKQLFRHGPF
Method: as §1

recombinant human IL-13 [5] = molecular target: T1, recombinant human IL-13; test: competition ELISA; competitor mAb13.2
FLAG-human IL-13 [6] = molecular target: T2, FLAG-human IL-13; test: competition ELISA; IL-13-FLAG immobilized with anti-FLAG antibody, detected with biotinylated mAb13.2; unlabeled antibody varied
recombinant human IL-13 [7] = molecular target: T1, recombinant human IL-13; test: Biacore; h13.2v2 immobilized on the chip, dose range of human IL-13 passed over
[8] = molecular target: T4, IL-13 captured by IL-13Rα2 on the surface of A375 human melanoma cells (human, UniProt Q14627 27-380); test: flow cytometry; A375 cells pre-incubated with 3 ng/ml hu IL13, stained with biotinylated h13.2v2
T4 construct: whole, on cells; Recombinant human IL-13 (3 ng/ml, or 10 ng/ml for ADCC) contacted to A375 cells; also called IL-13-loaded A375 cells; cells expressing IL-13Rα2
T4 sequence (chain, as listed by the source, chain 1 of 2): as the sequence (P35225 other isoform, or with tags, fused parts or gaps limits assumed) above
T4 sequence (Q14627 27-380, chain 2 of 2): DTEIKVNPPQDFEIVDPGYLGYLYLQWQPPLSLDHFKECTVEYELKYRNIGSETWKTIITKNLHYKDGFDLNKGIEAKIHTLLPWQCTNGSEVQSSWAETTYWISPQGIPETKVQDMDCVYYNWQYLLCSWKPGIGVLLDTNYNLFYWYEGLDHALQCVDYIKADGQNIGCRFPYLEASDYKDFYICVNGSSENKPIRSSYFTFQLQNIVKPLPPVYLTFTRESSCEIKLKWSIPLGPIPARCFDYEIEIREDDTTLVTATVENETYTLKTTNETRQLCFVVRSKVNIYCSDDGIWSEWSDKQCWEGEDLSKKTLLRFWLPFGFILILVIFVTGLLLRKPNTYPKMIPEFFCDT
Source text: The cell signaling form of the IL-13 receptor, which includes the IL-13Rα1 and IL-4Rα polypeptides, is found on the surface of cell types that respond to the cytokine. IL-13Rα2 is not typically expressed on the surface of IL-13-responsive cells, but has been reported on tumors of the brain, head, and neck (Kawakami et al. (2003) Clin. Cancer Res. 9:6381-8; Mintz et al. (2002) Neoplasia 4:388-99; Liu et al. (2000) Cancer Immunol. Immunother. 49:319-24). IL-13Rα2 expression may also be induced on IFNγ-treated primary human monocytes (Daines et al. (2002) J. Biol. Chem. 277:10387-93), or TNFα- or IL-13-treated primary human fibroblasts (Yoshikawa et al. (2003) Biochem. Biophys. Res. Commun. 312:1248-55). This receptor is not competent to mediate signaling responses to IL-13 (Kawakami et al. (2001) Blood 97:2673-9), but instead appears to act as a decoy receptor, competing for productive IL-13 interactions with IL-13Rα1 (Feng et al. (1998) Lab. Invest. 78:591-602). IL-13Rα2 has a high affinity for IL-13 (Andrews et al. (2002) J. Biol. Chem. 277:46073-8), and appears to interact primarily with the C-terminal region of the cytokine (Madhankumar et al. (2002) J. Biol. Chem. 277:43194-205), which is not predicted to include the h13.2v2 binding site. Therefore, it was examined whether h13.2v2 could interact with IL-13 captured by IL-13Rα2 on the cell surface. […]

T1 sequence (P35225 other isoform, or with tags, fused parts or gaps): as the sequence (P35225 other isoform, or with tags, fused parts or gaps limits assumed) above

B1: murine monoclonal antibody mAb13.2 (antibody, V domains shown)
VH: EVKLVESGGGLVKPGGSLKLSCAASGFTFISYAMSWVRQTPEKRLEWVASISSGGNTYYPDSVKGRFTISRDNARNILYLQMSSLRSEDTAMYYCARLDGYYFGFAYWGQGTTVTVSS
VL: DIVLTQSPASLAVSLGQRATISCKASESVDNYGKSLMHWYQQKPGQSPKLLIYRASNLESGIPARFSGSGSRTDFTLTINPVEADDVATYYCQQSNEDPWTFGGGTKLEIK
notes: also called mouse mAb13.2; biotinylated mAb13.2
For B1, the Ka (recombinant human IL-13 [1]) was 2.1e+09 M⁻¹, the Kd (recombinant human IL-13 [1]) was 0.47 nM and the “IC50 (read off the curve)” value (FLAG-human IL-13 [2]) was roughly 1 nM. The “IC50 (read off the curve), TF1 proliferation” value (recombinant human IL-13 [3]) was roughly 0.3 nM, the Ka (recombinant human IL-13 [4]) was 4e+10 M⁻¹ and the Kd (recombinant human IL-13 [4]) was 0.025 nM. For the same binder, the koff (recombinant human IL-13 [4]) was 2.7e-06 s⁻¹, the kon (recombinant human IL-13 [4]) was 110000 M⁻¹ s⁻¹ and the binding result (recombinant murine IL-13) was “no binding (tested: about 3000 ng/ml)”.

B2: chimeric mAb13.2 antibody (ch13.2) (antibody, human IgG1, kappa, V domains shown)
VH: EVKLVESGGGLVKPGGSLKLSCAASGFTFISYAMSWVRQTPEKRLEWVASISSGGNTYYPDSVKGRFTISRDNARNILYLQMSSLRSEDTAMYYCARLDGYYFGFAYWGQGTTVTVSS
VL: DIVLTQSPASLAVSLGQRATISCKASESVDNYGKSLMHWYQQKPGQSPKLLIYRASNLESGIPARFSGSGSRTDFTLTINPVEADDVATYYCQQSNEDPWTFGGGTKLEIKR
For B2, the “IC50 (read off the curve)” value (FLAG-human IL-13 [2]) was roughly 1 nM.

B3: partially humanized mAb13.2 (h13.2v1) (antibody, human IgG1, kappa, V domains shown)
VH: EVKLVESGGGLVQPGGSLRLSCAASGFTFISYAMSWVRQAPGKGLEWVASISSGGNTYYPDSVKGRFTISRDNAKNSLYLQMNSLRAEDTAVYYCARLDGYYFGFAYWGQGTLVTVSS
VL: DIQLTQSPSSLSASVGDRVTITCKASESVDNYGKSLMHWYQQKPGKAPKLLIYRASNLESGVPSRFSGSGSRTDFTLTISSLQPEDFATYYCQQSNEDPWTFGGGTKVEIKR
notes: Human IgG1 mutated (L234A/G237A), human kappa; also called hu13.2 V1
B3: binds (recombinant human IL-13 [5]); binds (FLAG-human IL-13 [6]).

B4: fully humanized mAb13.2 (h13.2v3) (antibody, human IgG1, kappa, V domains shown)
VH: EVQLVESGGGLVKPGGSLRLSCAASGFTFISYAMSWVRQAPGKGLEWVSSISSGGNTYYPDSVKGRFTISRDNAKNSLYLQMNSLRAEDTAVYYCARLDGYYFGFAYWGQGTTVTVSS
VL: DIVLTQSPASLAVSPGQRATITCKASESVDNYGKSLMHWYQQKPGQPPKLLIYRASNLESGVPARFSGSGSGTDFTLTINPVEANDTANYYCQQSNEDPWTFGGGTKVEIKR
B4: binds (recombinant human IL-13 [5]).

B5: fully humanized mAb13.2 (h13.2v2) (antibody, human IgG1, kappa, V domains shown)
VH: EVQLVESGGGLVQPGGSLRLSCAASGFTFISYAMSWVRQAPGKGLEWVASISSGGNTYYPDSVKGRFTISRDNAKNSLYLQMNSLRAEDTAVYYCARLDGYYFGFAYWGQGTLVTVSS
VL: DIQMTQSPSSLSASVGDRVTITCKASESVDNYGKSLMHWYQQKPGKAPKLLIYRASNLESGVPSRFSGSGSGTDFTLTISSLQPEDFATYYCQQSNEDPWTFGGGTKVEIKR
notes: Human IgG1 mutated (L234A/G237A), human kappa; also called hu13.2 V2; biotinylated h13.2v2
For B5, the Ka (recombinant human IL-13 [7]) was 9.3e+09 M⁻¹, the Kd (recombinant human IL-13 [7]) was 0.11 nM and the binding result [8] was “binds”.
